Positions count from the first letter of the chain named. In names and notes the source's numbering stands.
Target: T1, recombinant human activated Factor VII (FVIIa) (human, UniProt P08709 61-212; P08709 213-466, ten glutamate residues of the Gla domain may be gamma-carboxylated)
T1 construct: chains tethered by a disulfide bond; also called Factor VIIa; rFVIIa
T1 sequence 1: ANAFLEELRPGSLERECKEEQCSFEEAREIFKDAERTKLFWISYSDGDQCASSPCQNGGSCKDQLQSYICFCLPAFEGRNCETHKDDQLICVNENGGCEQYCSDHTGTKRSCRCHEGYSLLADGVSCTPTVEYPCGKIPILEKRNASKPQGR
T1 sequence 2: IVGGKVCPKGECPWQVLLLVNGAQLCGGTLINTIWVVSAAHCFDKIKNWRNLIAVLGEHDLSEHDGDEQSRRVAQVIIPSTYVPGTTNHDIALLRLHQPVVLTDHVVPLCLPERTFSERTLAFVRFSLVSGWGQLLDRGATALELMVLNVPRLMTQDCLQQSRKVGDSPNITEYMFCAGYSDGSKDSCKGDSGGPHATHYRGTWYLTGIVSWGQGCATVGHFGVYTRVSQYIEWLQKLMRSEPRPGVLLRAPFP
Experiment: BLI (Fortebio)

B1: VH SEQ ID NO 602 / VL SEQ ID NO 462 (antibody, IgG4, V domains shown)
VH: QVQLQESGPGLVKPSQTLSLTCTVSGGSISSDSAWSWIRQPPGKGLEWIGYIQYSGSTNYNPSLKSRVTISVDTSKNQFSLKLSSVTAADTAVYYCARSVNYYGNSFAVGYWGQGTLVTVSS
VL: EIVLTQSPATLSLSPGERATLSCRASQGVSDYLHWYQQKPGQAPRLLIKYASQPATGIPARFSGSGSGTDFTLTISSLEPEDFAVYYCQNGHSFPLTFGAGTKLEIK
notes: humanized 11F2; IgG4 S228P/kappa
Kd: 15 nM

B2: VH SEQ ID NO 610 / VL SEQ ID NO 502 (antibody, IgG4, V domains shown)
VH: B1 VH with S30T
VL: B1 VL with A51T, A100Q
notes: as for B1
Kd: 17 nM

B3: VH SEQ ID NO 618 / VL SEQ ID NO 382 (antibody, IgG4, V domains shown)
VH: B1 VH with G27Y, P41F, V72R, Y111P
VL: B1 VL with V29L, Q42E, A100Q
notes: as for B1
Kd: 1.1 nM

B4: VH SEQ ID NO 618 / VL SEQ ID NO 390 (antibody, IgG4, V domains shown)
VH: B1 VH with G27Y, P41F, V72R, Y111P
VL: B1 VL with H34A, Q42E, A100Q
notes: as for B1
Kd: 33 nM

B5: VH SEQ ID NO 610 / VL SEQ ID NO 326 (antibody, IgG4, V domains shown)
VH: B1 VH with S30T
VL: B1 VL with V29I, Q42E, A51T, A84G, I106L
notes: as for B1
Kd: 11 nM

B6: VH SEQ ID NO 618 / VL SEQ ID NO 446 (antibody, IgG4, V domains shown)
VH: B1 VH with G27Y, P41F, V72R, Y111P
VL: B1 VL with H34A, A51T, A100Q
notes: as for B1
Kd: 200 nM

B7: VH SEQ ID NO 618 / VL SEQ ID NO 310 (antibody, IgG4, V domains shown)
VH: B1 VH with G27Y, P41F, V72R, Y111P
VL: B1 VL with V29I, H34A, A100Q
notes: as for B1
Kd: 12 nM

B8: VH SEQ ID NO 610 / VL SEQ ID NO 310 (antibody, IgG4, V domains shown)
VH: B1 VH with S30T
VL: B1 VL with V29I, H34A, A100Q
notes: as for B1
Kd: 80 nM

B9: VH SEQ ID NO 618 / VL SEQ ID NO 342 (antibody, IgG4, V domains shown)
VH: B1 VH with G27Y, P41F, V72R, Y111P
VL: B1 VL with V29I, A51T, T69R, I106L
notes: as for B1
Kd: 1.2 nM

B10: VH SEQ ID NO 602 / VL SEQ ID NO 470 (antibody, IgG4, V domains shown)
VH: B1 VH
VL: B1 VL with A100Q
notes: as for B1
Kd: 13 nM

B11: VH SEQ ID NO 610 / VL SEQ ID NO 446 (antibody, IgG4, V domains shown)
VH: B1 VH with S30T
VL: B1 VL with H34A, A51T, A100Q
notes: as for B1
Kd: 49 nM

B12: VH SEQ ID NO 610 / VL SEQ ID NO 462 (antibody, IgG4, V domains shown)
VH: B1 VH with S30T
VL: B1 VL
notes: as for B1
Kd: 17 nM

B13: VH SEQ ID NO 602 / VL SEQ ID NO 478 (antibody, IgG4, V domains shown)
VH: B1 VH
VL: B1 VL with N90Q, A100Q
notes: as for B1
Kd: 24 nM

B14: VH SEQ ID NO 602 / VL SEQ ID NO 502 (antibody, IgG4, V domains shown)
VH: B1 VH
VL: B1 VL with A51T, A100Q
notes: as for B1
Kd: 14 nM

B15: VH SEQ ID NO 618 / VL SEQ ID NO 398 (antibody, IgG4, V domains shown)
VH: B1 VH with G27Y, P41F, V72R, Y111P
VL: B1 VL with H34A, Q42E, A51T, A100Q
notes: as for B1
Kd: 180 nM

B16: VH SEQ ID NO 618 / VL SEQ ID NO 430 (antibody, IgG4, V domains shown)
VH: B1 VH with G27Y, P41F, V72R, Y111P
VL: B1 VL with H34A, A84G, A100Q
notes: as for B1
Kd: 110 nM

B17: VH SEQ ID NO 610 / VL SEQ ID NO 438 (antibody, IgG4, V domains shown)
VH: B1 VH with S30T
VL: B1 VL with H34A, F83V, A100Q
notes: as for B1
Kd: 620 nM

B18: VH SEQ ID NO 618 / VL SEQ ID NO 350 (antibody, IgG4, V domains shown)
VH: B1 VH with G27Y, P41F, V72R, Y111P
VL: B1 VL with V29I, A51T, I106L
notes: as for B1
Kd: 1 nM

B19: VH SEQ ID NO 610 / VL SEQ ID NO 334 (antibody, IgG4, V domains shown)
VH: B1 VH with S30T
VL: B1 VL with V29I, A100Q
notes: as for B1
Kd: 13 nM

B20: VH SEQ ID NO 610 / VL SEQ ID NO 318 (antibody, IgG4, V domains shown)
VH: B1 VH with S30T
VL: B1 VL with V29I, Q42E, A51T, A100Q
notes: as for B1
Kd: 10 nM

B21: VH SEQ ID NO 618 / VL SEQ ID NO 334 (antibody, IgG4, V domains shown)
VH: B1 VH with G27Y, P41F, V72R, Y111P
VL: B1 VL with V29I, A100Q
notes: as for B1
Kd: 1.3 nM

B22: VH SEQ ID NO 602 / VL SEQ ID NO 486 (antibody, IgG4, V domains shown)
VH: B1 VH
VL: B1 VL with A84G, A100Q
notes: as for B1
Kd: 15 nM

B23: VH SEQ ID NO 618 / VL SEQ ID NO 438 (antibody, IgG4, V domains shown)
VH: B1 VH with G27Y, P41F, V72R, Y111P
VL: B1 VL with H34A, F83V, A100Q
notes: as for B1
Kd: 34 nM

B24: VH SEQ ID NO 610 / VL SEQ ID NO 454 (antibody, IgG4, V domains shown)
VH: B1 VH with S30T
VL: B1 VL with Q42E, A100Q
notes: as for B1
Kd: 16 nM

B25: VH SEQ ID NO 610 / VL SEQ ID NO 494 (antibody, IgG4, V domains shown)
VH: B1 VH with S30T
VL: B1 VL with F83V, A100Q
notes: as for B1
Kd: 17 nM

B26: VH SEQ ID NO 618 / VL SEQ ID NO 366 (antibody, IgG4, V domains shown)
VH: B1 VH with G27Y, P41F, V72R, Y111P
VL: B1 VL with V29L, H34A, Q42E, A100Q
notes: as for B1
Kd: 21 nM

B27: VH SEQ ID NO 610 / VL SEQ ID NO 366 (antibody, IgG4, V domains shown)
VH: B1 VH with S30T
VL: B1 VL with V29L, H34A, Q42E, A100Q
notes: as for B1
Kd: 330 nM

B28: VH SEQ ID NO 618 / VL SEQ ID NO 414 (antibody, IgG4, V domains shown)
VH: B1 VH with G27Y, P41F, V72R, Y111P
VL: B1 VL with H34A, A100Q
notes: as for B1
Kd: 24 nM

B29: VH SEQ ID NO 610 / VL SEQ ID NO 342 (antibody, IgG4, V domains shown)
VH: B1 VH with S30T
VL: B1 VL with V29I, A51T, T69R, I106L
notes: as for B1
Kd: 16 nM

B30: VH SEQ ID NO 610 / VL SEQ ID NO 478 (antibody, IgG4, V domains shown)
VH: B1 VH with S30T
VL: B1 VL with N90Q, A100Q
notes: as for B1
Kd: 33 nM

B31: VH SEQ ID NO 618 / VL SEQ ID NO 326 (antibody, IgG4, V domains shown)
VH: B1 VH with G27Y, P41F, V72R, Y111P
VL: B1 VL with V29I, Q42E, A51T, A84G, I106L
notes: as for B1
Kd: 1.1 nM

B32: VH SEQ ID NO 610 / VL SEQ ID NO 406 (antibody, IgG4, V domains shown)
VH: B1 VH with S30T
VL: B1 VL with H34A
notes: as for B1
Kd: 480 nM

B33: VH SEQ ID NO 610 / VL SEQ ID NO 382 (antibody, IgG4, V domains shown)
VH: B1 VH with S30T
VL: B1 VL with V29L, Q42E, A100Q
notes: as for B1
Kd: 17 nM

B34: VH SEQ ID NO 610 / VL SEQ ID NO 430 (antibody, IgG4, V domains shown)
VH: B1 VH with S30T
VL: B1 VL with H34A, A84G, A100Q
notes: as for B1
Kd: 1500 nM

B35: VH SEQ ID NO 610 / VL SEQ ID NO 414 (antibody, IgG4, V domains shown)
VH: B1 VH with S30T
VL: B1 VL with H34A, A100Q
notes: as for B1
Kd: 780 nM

B36: VH SEQ ID NO 610 / VL SEQ ID NO 486 (antibody, IgG4, V domains shown)
VH: B1 VH with S30T
VL: B1 VL with A84G, A100Q
notes: as for B1
Kd: 17 nM

B37: VH SEQ ID NO 618 / VL SEQ ID NO 406 (antibody, IgG4, V domains shown)
VH: B1 VH with G27Y, P41F, V72R, Y111P
VL: B1 VL with H34A
notes: as for B1
Kd: 24 nM

B38: VH SEQ ID NO 610 / VL SEQ ID NO 358 (antibody, IgG4, V domains shown)
VH: B1 VH with S30T
VL: B1 VL with V29I, A51T, A100Q
notes: as for B1
Kd: 11 nM

B39: VH SEQ ID NO 610 / VL SEQ ID NO 350 (antibody, IgG4, V domains shown)
VH: B1 VH with S30T
VL: B1 VL with V29I, A51T, I106L
notes: as for B1
Kd: 11 nM

B40: VH SEQ ID NO 618 / VL SEQ ID NO 318 (antibody, IgG4, V domains shown)
VH: B1 VH with G27Y, P41F, V72R, Y111P
VL: B1 VL with V29I, Q42E, A51T, A100Q
notes: as for B1
Kd: 1.1 nM

B41: VH SEQ ID NO 610 / VL SEQ ID NO 390 (antibody, IgG4, V domains shown)
VH: B1 VH with S30T
VL: B1 VL with H34A, Q42E, A100Q
notes: as for B1
Kd: 380 nM

B42: VH SEQ ID NO 618 / VL SEQ ID NO 422 (antibody, IgG4, V domains shown)
VH: B1 VH with G27Y, P41F, V72R, Y111P
VL: B1 VL with H34A, N90Q, A100Q
notes: as for B1
Kd: 5800 nM

B43: VH SEQ ID NO 618 / VL SEQ ID NO 358 (antibody, IgG4, V domains shown)
VH: B1 VH with G27Y, P41F, V72R, Y111P
VL: B1 VL with V29I, A51T, A100Q
notes: as for B1
Kd: 0.95 nM

B44: VH SEQ ID NO 602 / VL SEQ ID NO 494 (antibody, IgG4, V domains shown)
VH: B1 VH
VL: B1 VL with F83V, A100Q
notes: as for B1
Kd: 14 nM

B45: VH SEQ ID NO 610 / VL SEQ ID NO 470 (antibody, IgG4, V domains shown)
VH: B1 VH with S30T
VL: B1 VL with A100Q
notes: as for B1
Kd: 16 nM
